# Data: patent US20140363465A1
# Biological target: SIINFEKL:H-2K^b complex on the surface of A3.1A7 macrophage cells (chicken)
# Assay: cell-based or functional assay
sequence,measurement,value
"T cell receptor of the RF33.70 T-T hybridoma (CD8+, SIINFEKL-specific, H-2K^b-restricted) (TCR)","IL-2 production by the RF33.70 T cell hybridoma (sandwich ELISA), SIINFEKL peptide concentration giving a detectable response",< 0.1 pg/mL
same,level of IL-2 production generated in response to free SIINFEKL peptide,< 275 pg/mL
